# Target: the molecule itself
# Assay: native gel or EMSA; pore-limited native PAGE of purified recombinant A2M; dimers that failed to tetramerize were removed during purification (Fig. S2)
protein,measurement,value
"tabula rasa A2M (bait region replaced by 13 Gly-Gly-Ser repeats) (natural protein, human, human alpha2-macroglobulin from its N-terminus to residue 689, the residue before the bait region (residues 690-728); tabula rasa bait region: 13 Gly-Gly-Ser repeats in place of the 39 residues 690-728, told in words; human alpha2-macroglobulin from residue 729, the residue after the bait region, to the C-terminus; Dimers removed during purification; also called A2M TR; A2M tabula rasa) SVSGKPQYMVLVPSLLHTETTEKGCVLLSYLNETVTVSASLESVRGNRSLFTDLEAENDVLHCVAFAVPKSSSNEEVMFLTVQVKGPTQEFKKRTTVMVKNEDSLVFVQTDKSIYKPGQTVKFRVVSMDENFHPLNELIPLVYIQDPKGNRIAQWQSFQLEGGLKQFSFPLSSEPFQGSYKVVVQKKSGGRTEHPFTVEEFVLPKFEVQVTVPKIITILEEEMNVSVCGLYTYGKPVPGHVTVSICRKYSDASDCHGEDSQAFCEKFSGQLNSHGCFYQQVKTKVFQLKRKEYEMKLHTEAQIQEEGTVVELTGRQSSEITRTITKLSFVKVDSHFRQGIPFFGQVRLVDGKGVPIPNKVIFIRGNEANYYSNATTDEHGLVQFSINTTNVMGTSLTVRVNYKDRSPCYGYQWVSEEHEEAHHTAYLVFSPSKSFVHLEPMSHELPCGHTQTVQAHYILNGGTLLGLKKLSFYYLIMAKGGIVRTGTHGLLVKQEDMKGHFSISIPVKSDIAPVARLLIYAVLPTGDVIGDSAKYDVENCLANKVDLSFSPSQSLPASHAHLRVTAAPQSVCALRAVDQSVLLMKPDAELSASSVYNLLPEKDLTGFPGPLNDQDNEDCINRHNVYINGITYTPVSSTNEKDMYSFLEDMGLKAFTNSKIRKPKMCGGSGGSGGSGGSGGSGGSGGSGGSGGSGGSGGSGGSGGSETVRKYFPETWIWDLVVVNSAGVAEVGVTVPDTITEWKAGAFCLSEDAGLGISSTASLRAFQPFFVELTMPYSVIRGEAFTLKATVLNYLPKCIRVSVQLEASPAFLAVPVEKEQAPHCICANGRQTVSWAVTPKSLGNVNFTVSAEALESQELCGTEVPSVPEHGRKDTVIKPLLVEPEGLEKETTFNSLLCPSGGEVSEELSLKLPPNVVEESARASVSVLGDILGSAMQNTQNLLQMPYGCGEQNMVLFAPNIYVLDYLNETQQLTPEIKSKAIGYLNTGYQRQLNYKHYDGSYSTFGERYGRNQGNTWLTAFVLKTFAQARAYIFIDEAHITQALIWLSQRQKDNGCFRSSGSLLNNAIKGGVEDEVTLSAYITIALLEIPLTVTHPVVRNALFCLESAWKTAQEGDHGSHVYTKALLAYAFALAGNQDKRKEVLKSLNEEAVKKDNSVHWERPQKPKAPVGHFYEPQAPSAEVEMTSYVLLAYLTAQPAPTSEDLTSATNIVKWITKQQNAQGGFSSTQDTVVALHALSKYGAATFTRTGKAAQVTIQSSGTFSSKFQVDNNNRLLLQQVSLPELPGEYSMKVTGEGCVYLQTSLKYNILPEKEEFPFALGVQTLPQTCDEPKAHTSFQISLSVSYTGSRSASNMAIVDVKMVSGFIPLKPTVKMLERSNHVSRTEVSSNHVLIYLDKVSNQTLSLFFTVLQDVPVRDLKPAIVKVYDYYETDEFAIAEYNAPCSKDLGNA",stoichiometry N,4

# — publication PMC8267569, “Development of selective protease inhibitors via engineering of the bait region of human α2-macroglobulin” (The Journal of Biological Chemistry, 2021)
